Reference: the Human Domainome abundance scans (Beltran et al. 2025)
± gives the uncertainty stated by the source.

B1: Peroxisome proliferator-activated receptor delta, residues 71 to 145; numbered along this chain, Q03181 (parent)
chain: NMECRVCGDKASGFHYGVHACEGCKGFFRRTIRMKLEYEKCERSCKIQKKNRNKCQYCRFQKCLALGMSHNAIRF

Variants of: B1
Test: abundance fitness (aPCA) (normalised: wild type 0, dead -1); higher = more abundant; growth selection in yeast, the domain comes from the species named
Settings: Homo sapiens

For NMECRVCGDKASGFHYGVHACEGCKGFFRRTIRMKLEYEKCCRSCKIQKKNRNKCQYCRFQKCLALGMSHNAIRF [E42C], which abundance fitness is on record?
The abundance fitness was -0.394 ± 0.077.

Which abundance fitness does the source give for NMECRVCGDKASGFHYGVHACEGCKGFFRRTIRMKLEYEKCYRSCKIQKKNRNKCQYCRFQKCLALGMSHNAIRF [E42Y] here?
The abundance fitness was -0.093 ± 0.089.

With NMECRVCGDKASGFHYGVHACEGCKGFFRRTIRMKLEYEKCSRSCKIQKKNRNKCQYCRFQKCLALGMSHNAIRF [E42S] as the variant, how does the abundance fitness read?
The abundance fitness was -0.117 ± 0.04.

With NMECRVCGDKASGFHYGVHACEGCKGFFRRTIRMKLEYEKCDRSCKIQKKNRNKCQYCRFQKCLALGMSHNAIRF [E42D] as the variant, how does the abundance fitness read?
Its abundance fitness is -0.16 ± 0.073.

With NMECRVCGDKASGFHYGVHACEGCKGFFRRTIRMKLEYEKCHRSCKIQKKNRNKCQYCRFQKCLALGMSHNAIRF [E42H] as the variant, how does the abundance fitness read?
The abundance fitness was -0.195 ± 0.08.

Which abundance fitness does the source give for NMECRVCGDKASGFHYGVHACEGCKGFFRRTIRMKLEYEKCIRSCKIQKKNRNKCQYCRFQKCLALGMSHNAIRF [E42I] here?
The abundance fitness was -0.304 ± 0.089.

With NMECRVCGDKASGFHYGVHACEGCKGFFRRTIRMKLEYEKCQRSCKIQKKNRNKCQYCRFQKCLALGMSHNAIRF [E42Q] as the variant, how does the abundance fitness read?
The abundance fitness was -0.104 ± 0.049.

For NMECRVCGDKASGFHYGVHACEGCKGFFRRTIRMKLEYETCERSCKIQKKNRNKCQYCRFQKCLALGMSHNAIRF [K40T], which abundance fitness is on record?
The abundance fitness was -0.154 ± 0.048.

Which abundance fitness does the source give for NMECRVCGDKASGFHYGVHACEGCKGFFRRTIRMKLEYEICERSCKIQKKNRNKCQYCRFQKCLALGMSHNAIRF [K40I] here?
The abundance fitness was 0.061 ± 0.089.

With NMECRVCGDKASGFHYGVHACEGCKGFFRRTIRMKLEYEGCERSCKIQKKNRNKCQYCRFQKCLALGMSHNAIRF [K40G] as the variant, how does the abundance fitness read?
The abundance fitness was -0.472 ± 0.045.

With NMECRVCGDKASGFHYGVHACEGCKGFFRRTIRMKLEYEFCERSCKIQKKNRNKCQYCRFQKCLALGMSHNAIRF [K40F] as the variant, how does the abundance fitness read?
Its abundance fitness is 0.02 ± 0.073.

With NMECRVCGDKASGFHYGVHACEGCKGFFRRTIRMKLEYEYCERSCKIQKKNRNKCQYCRFQKCLALGMSHNAIRF [K40Y] as the variant, how does the abundance fitness read?
Its abundance fitness is -0.088 ± 0.081.

Which abundance fitness does the source give for NMECRVCGDKASGFHYGVHACEGCKGFFRRTIRMKLEYEMCERSCKIQKKNRNKCQYCRFQKCLALGMSHNAIRF [K40M] here?
Its abundance fitness is -0.09 ± 0.053.

With NMECRVCGDKASGFHYGVHACEGCKGFFRRTIRMKLEYEWCERSCKIQKKNRNKCQYCRFQKCLALGMSHNAIRF [K40W] as the variant, how does the abundance fitness read?
Its abundance fitness is -0.348 ± 0.058.

For NMECRVCGDKASGFHYGVHACEGCKGFFRRTIRMKLEYEDCERSCKIQKKNRNKCQYCRFQKCLALGMSHNAIRF [K40D], which abundance fitness is on record?
Its abundance fitness is -0.408 ± 0.1.

For NMECRVCGDKASGFHYGVHACEGCKGFFRRTIRMKLEYEVCERSCKIQKKNRNKCQYCRFQKCLALGMSHNAIRF [K40V], which abundance fitness is on record?
Its abundance fitness is 0.026 ± 0.036.

With NMECRVCGDKASGFHYGVHACEGCKGFFRRTIRMKLEYENCERSCKIQKKNRNKCQYCRFQKCLALGMSHNAIRF [K40N] as the variant, how does the abundance fitness read?
Its abundance fitness is -0.225 ± 0.093.

Which abundance fitness does the source give for NMECRVCGDKASGFHYGVHACEGCKGFFRRTIRMKLEYEHCERSCKIQKKNRNKCQYCRFQKCLALGMSHNAIRF [K40H] here?
Its abundance fitness is 0.08 ± 0.096.

For NMECRVCGDKASGFHYGVHACEGCKGFFRRTIRMKLEYESCERSCKIQKKNRNKCQYCRFQKCLALGMSHNAIRF [K40S], which abundance fitness is on record?
Its abundance fitness is -0.255 ± 0.051.

Which abundance fitness does the source give for NMECRVCGDKASGFHYGVHACEGCKGFFRRTIRMKLEYECCERSCKIQKKNRNKCQYCRFQKCLALGMSHNAIRF [K40C] here?
Its abundance fitness is -0.216 ± 0.074.

With NMECRVCGDKASGFHYGVHACEGCKGFFRRTIRMKLEYERCERSCKIQKKNRNKCQYCRFQKCLALGMSHNAIRF [K40R] as the variant, how does the abundance fitness read?
The abundance fitness was -0.095 ± 0.033.

For NMECRVCGDKASGFHYGVHACEGCKGFFRRTIRMKLEYEECERSCKIQKKNRNKCQYCRFQKCLALGMSHNAIRF [K40E], which abundance fitness is on record?
The abundance fitness was -0.113 ± 0.046.

Which abundance fitness does the source give for NMECRVCGDKASGFHYGVHACEGCKGFFRRTIRMKLEYELCERSCKIQKKNRNKCQYCRFQKCLALGMSHNAIRF [K40L] here?
The abundance fitness was -0.077 ± 0.037.

Which abundance fitness does the source give for NMECRVCGDKASGFHYGVHACEGCKGFFRRTIRMKLEYEPCERSCKIQKKNRNKCQYCRFQKCLALGMSHNAIRF [K40P] here?
The abundance fitness was -0.117 ± 0.056.

With NMECRVCGDKASGFHYGVHACEGCKGFFRRTIRMKLEYEQCERSCKIQKKNRNKCQYCRFQKCLALGMSHNAIRF [K40Q] as the variant, how does the abundance fitness read?
Its abundance fitness is -0.05 ± 0.05.

For NMECRVCGDKASGFHYGVHACEGCKGFFRRTIRMKLEYEKLERSCKIQKKNRNKCQYCRFQKCLALGMSHNAIRF [C41L], which abundance fitness is on record?
The abundance fitness was -1.27 ± 0.34.

With NMECRVCGDKASGFHYGVHACEGCKGFFRRTIRMKLEYEKGERSCKIQKKNRNKCQYCRFQKCLALGMSHNAIRF [C41G] as the variant, how does the abundance fitness read?
The abundance fitness was -0.684 ± 0.089.

With NMECRVCGDKASGFHYGVHACEGCKGFFRRTIRMKLEYEKWERSCKIQKKNRNKCQYCRFQKCLALGMSHNAIRF [C41W] as the variant, how does the abundance fitness read?
Its abundance fitness is -0.774 ± 0.22.

For NMECRVCGDKASGFHYGVHACEGCKGFFRRTIRMKLEYEKAERSCKIQKKNRNKCQYCRFQKCLALGMSHNAIRF [C41A], which abundance fitness is on record?
The abundance fitness was -1 ± 0.27.

Which abundance fitness does the source give for NMECRVCGDKASGFHYGVHACEGCKGFFRRTIRMKLEYEKYERSCKIQKKNRNKCQYCRFQKCLALGMSHNAIRF [C41Y] here?
The abundance fitness was -0.816 ± 0.34.

With NMECRVCGDKASGFHYGVHACEGCKGFFRRTIRMKLEYEKFERSCKIQKKNRNKCQYCRFQKCLALGMSHNAIRF [C41F] as the variant, how does the abundance fitness read?
The abundance fitness was -0.398 ± 0.3.

Which abundance fitness does the source give for NMECRVCGDKASGFHYGVHACEGCKGFFRRTIRMKLEYEKEERSCKIQKKNRNKCQYCRFQKCLALGMSHNAIRF [C41E] here?
The abundance fitness was -0.729 ± 0.19.

For NMECRVCGDKASGFHYGVHACEGCKGFFRRTIRMKLEYEKPERSCKIQKKNRNKCQYCRFQKCLALGMSHNAIRF [C41P], which abundance fitness is on record?
Its abundance fitness is -0.093 ± 0.16.

Which abundance fitness does the source give for NMECRVCGDKASGFHYGVHACEGCKGFFRRTIRMKLEYEKVERSCKIQKKNRNKCQYCRFQKCLALGMSHNAIRF [C41V] here?
Its abundance fitness is -0.645 ± 0.13.

With NMECRVCGDKASGFHYGVHACEGCKGFFRRTIRMKLEYEKSERSCKIQKKNRNKCQYCRFQKCLALGMSHNAIRF [C41S] as the variant, how does the abundance fitness read?
The abundance fitness was -0.945 ± 0.23.

For NMECRVCGDKASGFHYGVHACEGCKGFFRRTIRMKLEYEKRERSCKIQKKNRNKCQYCRFQKCLALGMSHNAIRF [C41R], which abundance fitness is on record?
The abundance fitness was -0.694 ± 0.099.

For NMECRVCGDKASGFHYGVHACEGCKGFFRRTIRMKLEYEKHERSCKIQKKNRNKCQYCRFQKCLALGMSHNAIRF [C41H], which abundance fitness is on record?
The abundance fitness was -0.361 ± 0.24.
